The record followed here is article PMC3324563 (Biochemistry, 2012).

Several values for one entry are separate records, joined by “and”; a condition that tells them apart may be missing. Identical values can stand only once.

One may read the Kd as the equilibrium constant for the complex coming apart. A high value points to lower affinity. In general, stoichiometry N refers to the number of molecules, sites or subunits per partner or assembly.

First the molecules themselves.
B3: Methanocaldococcus jannaschii prolyl-tRNA synthetase (ProRS) (enzyme, UniProt Q58635 1-455, looked up)
chain: MEFSEWYSDILEKAEIYDVRYPIKGCGVYLPYGFKIRRYTFEIIRNLLDESGHDEALFPMLIPEDLLAKEAEHIKGFEDEVYWVTHGGKTQLDVKLALRPTSETPIYYMMKLWVKVHTDLPIKIYQIVNTFRYETKHTRPLIRLREIMTFKEAHTAHSTKEEAENQVKEAISIYKKFFDTLGIPYLISKRPEWDKFPGAEYTMAFDTIFPDGRTMQIATVHNLGQNFSKTFEIIFETPTGDKDYAYQTCYGISDRVIASIIAIHGDEKGLILPPIVAPIQVVIVPLIFKGKEDIVMEKAKEIYEKLKGKFRVHIDDRDIRPGRKFNDWEIKGVPLRIEVGPKDIENKKITLFRRDTMEKFQVDETQLMEVVEKTLNNIMENIKNRAWEKFENFITILEDINPDEIKNILSEKRGVILVPFKEEIYNEELEEKVEATILGETEYKGNKYIAIAKTY

Data set [1] concerns the target Alexa Fluor 488-labeled Methanocaldococcus jannaschii ProRS (Methanocaldococcus jannaschii) (UniProt Q58635). Nature of the data set: fluorescence polarisation. A general note: In fluorescence polarisation assays a small probe gives low polarisation when free and higher when bound to something large.
The target of data set [2] is Methanocaldococcus jannaschii HmdIII (Methanocaldococcus jannaschii JAL-1). Description: SEC-MALS.
For data set [3], the target named is B3. Description: fluorescence polarisation.
Data set [4] concerns the molecule itself. Nature of the data set: SEC-MALS. On the technique in general: Size exclusion chromatography separates by hydrodynamic size, large species first.

As to “Methanocaldococcus jannaschii HmdIII (natural protein)”, the Kd in data set [1] came to 1890 nM. Further, the stoichiometry N in data set [2] is 2 and 4.

B1: Alexafluor-labeled Methanocaldococcus jannaschii HmdII (natural protein, Methanocaldococcus jannaschii JAL-1, UniProt Q58734 1-353, looked up)
chain: MRNIRKIKVDNMKVSVYGAGNQNLYINKLNLPEKFGGEPPYGGSRMAIEFAEAGHDVVLAEPNKNIMSDDLWKKVEDAGVKVVSDDVEAAKHGEIHVLFTPFGKATFRIAKTIIEHVPENAVICNTCTVSPVVLYYSLEPILRTKRKDVGISSMHPAAVPGTPQHGHYVIGGKTTDGKELATEEQIKKAVELAKSAGKEAYVVPADVSSVVADMGSLVTAVALSGVLDYYTVGRKIINAPKKMIEQQVIMTLQTMASLVETSGIEGMVKALNPELLIRSASSMKLLDRQKDLDAALEILQNLDETLKAEVEKAEIKPTTLVAAQSLVKEIKTLIGGAAAEGAIKRSARKLFEH
modifications: Alexafluor label (AlexaFluor 488), site not stated
In the case of B1, in data set [3], the binding result is recorded as “binds”.

B2: Methanocaldococcus jannaschii H2-forming N5,N10-methylene-H4MPT dehydrogenase (Hmd) (enzyme, Methanocaldococcus jannaschii JAL-1, UniProt Q58194 1-358, looked up)
chain: MKIAILGAGCYRTHAAAGITNFMRACEVAKEVGKPEIALTHSSITYGAELLHLVPDVKEVIVSDPCFAEEPGLVVIDEFDPKEVMEAHLSGNPESIMPKIREVVKAKAKELPKPPKACIHLVHPEDVGLKVTSDDREAVEGADIVITWLPKGNKQPDIIKKFADAIPEGAIVTHACTIPTTKFAKIFKDLGREDLNITSYHPGCVPEMKGQVYIAEGYASEEAVNKLYEIGKIARGKAFKMPANLIGPVCDMCSAVTATVYAGLLAYRDAVTKILGAPADFAQMMADEALTQIHNLMKEKGIANMEEALDPAALLGTADSMCFGPLAEILPTALKVLEKHKVVEEEGKTKCEIMSQKE
Consider B2, for which, in data set [4], the “stoichiometry N” value was 2.
As for B3, the “stoichiometry N” value in data set [4] worked out at 2.
